Data published in patent publication US20260176254A1, “INHIBITORS OF PROSTATE SPECIFIC MEMBRANE ANTIGEN AND USE THEREOF” (SHANGHAI SINOTAU BIOTECH. CO., LTD, priority 2023, published 2026).

Experiment: Tissue biodistribution in 22Rv1 tumor mouse model
Set-up: species or system mice
Settings: male, nude, in vivo, iv, total radioactivity
Text: LnCAP and 22RV1 CDX xenograft tumor models were generated by inoculating 5×10^6 cells/site subcutaneously in male SCID or nude mice (Vital River), respectively. Animals were housed according to IACUC guidance and had accessed to food and water ad libitium. Animals were used for biodistribution study when the tumor dimensions reached around 0.2-0.3 cm^3. […] At each tome point, animals were sacrificed and tissues were collected, weighted, and subjected to radioactivity measurements using gamma counter. Radioactivity in the tissues was presented in % ID/g (percent of injected dose per gram).

[1] = Tissue biodistribution: Salivary Gland

O=C(O)CCC[C@H](NC(=O)N[C@@H](CCCCNC(=O)[C@H](Cc1c2ccccc2cc2ccccc12)Nc1c(NC23CCC(c4nnc(CN5CCN(CC(=O)O)CCN(CC(=O)O)CCN(CC(=O)O)CC5)o4)(CC2)CC3)c(=O)c1=O)C(=O)O)C(=O)O [[^177Lu]Lu-E7, metal not drawn]
tissue uptake dose at 2 h: 5.17 ± 0.12 %ID | tissue uptake dose at 6 h: 1.71 ± 0.03 %ID | tissue uptake dose at 24 h: 1.36 ± 0.04 %ID | tissue uptake dose at 72 h: 1.29 ± 0.06 %ID | tissue uptake dose at 168 h: 0.23 ± 0.02 %ID | tissue uptake at 2 h (Tissue biodistribution: Blood): 0.23 ± 0.05 %ID/g | tissue uptake at 6 h (Tissue biodistribution: Blood): 0.04 %ID/g | tissue uptake at 24 h (Tissue biodistribution: Blood): 0.02 %ID/g | tissue uptake at 72 h (Tissue biodistribution: Blood): 0.02 %ID/g | tissue uptake at 168 h (Tissue biodistribution: Blood): 0.02 ± 0.01 %ID/g | tissue uptake at 2 h (Tissue biodistribution: Bone): 0.3 ± 0.02 %ID/g | tissue uptake at 6 h (Tissue biodistribution: Bone): 0.28 ± 0.05 %ID/g | tissue uptake at 24 h (Tissue biodistribution: Bone): 0.26 ± 0.03 %ID/g | tissue uptake at 72 h (Tissue biodistribution: Bone): 0.26 ± 0.06 %ID/g | tissue uptake at 168 h (Tissue biodistribution: Bone): 0.29 ± 0.1 %ID/g | tissue uptake at 2 h (Tissue biodistribution: Heart): 0.15 ± 0.02 %ID/g | tissue uptake at 6 h (Tissue biodistribution: Heart): 0.06 ± 0.01 %ID/g | tissue uptake at 24 h (Tissue biodistribution: Heart): 0.05 %ID/g | tissue uptake at 72 h (Tissue biodistribution: Heart): 0.05 ± 0.01 %ID/g | tissue uptake at 168 h (Tissue biodistribution: Heart): 0.07 ± 0.01 %ID/g | tissue uptake at 2 h (Tissue biodistribution: Kidney): 15.2 ± 5.3 %ID/g | tissue uptake at 6 h (Tissue biodistribution: Kidney): 8.27 ± 2.15 %ID/g | tissue uptake at 24 h (Tissue biodistribution: Kidney): 6.73 ± 0.66 %ID/g | tissue uptake at 72 h (Tissue biodistribution: Kidney): 2.88 ± 1.02 %ID/g | tissue uptake at 168 h (Tissue biodistribution: Kidney): 0.95 ± 0.16 %ID/g | tissue uptake at 2 h (Tissue biodistribution: Liver): 0.18 ± 0.02 %ID/g | tissue uptake at 6 h (Tissue biodistribution: Liver): 0.11 ± 0.01 %ID/g | tissue uptake at 24 h (Tissue biodistribution: Liver): 0.11 ± 0.01 %ID/g | tissue uptake at 72 h (Tissue biodistribution: Liver): 0.12 ± 0.02 %ID/g | tissue uptake at 168 h (Tissue biodistribution: Liver): 0.11 ± 0.02 %ID/g | tissue uptake at 2 h (Tissue biodistribution: Lung): 0.41 ± 0.08 %ID/g | tissue uptake at 6 h (Tissue biodistribution: Lung): 0.12 ± 0.02 %ID/g | tissue uptake at 24 h (Tissue biodistribution: Lung): 0.1 %ID/g | tissue uptake at 72 h (Tissue biodistribution: Lung): 0.07 ± 0.01 %ID/g | tissue uptake at 168 h (Tissue biodistribution: Lung): 0.06 ± 0.01 %ID/g | tissue uptake at 2 h (Tissue biodistribution: Muscle): 0.1 ± 0.02 %ID/g | tissue uptake at 6 h (Tissue biodistribution: Muscle): 0.04 ± 0.02 %ID/g | tissue uptake at 24 h (Tissue biodistribution: Muscle): 0.02 %ID/g | tissue uptake at 72 h (Tissue biodistribution: Muscle): 0.02 %ID/g | tissue uptake at 168 h (Tissue biodistribution: Muscle): 0.02 %ID/g | tissue uptake at 2 h [1]: 0.16 ± 0.01 %ID/g | tissue uptake at 6 h [1]: 0.07 ± 0.01 %ID/g | tissue uptake at 24 h [1]: 0.08 %ID/g | tissue uptake at 72 h [1]: 0.06 ± 0.01 %ID/g | tissue uptake at 168 h [1]: 0.06 ± 0.02 %ID/g | tissue uptake at 2 h (Tissue biodistribution: Spleen): 0.29 ± 0.03 %ID/g | tissue uptake at 6 h (Tissue biodistribution: Spleen): 0.12 ± 0.03 %ID/g | tissue uptake at 24 h (Tissue biodistribution: Spleen): 0.13 %ID/g | tissue uptake at 72 h (Tissue biodistribution: Spleen): 0.12 ± 0.01 %ID/g | tissue uptake at 168 h (Tissue biodistribution: Spleen): 0.15 ± 0.02 %ID/g | tissue uptake at 2 h (Tissue biodistribution: Tumor): 15.6 ± 4.67 %ID/g | tissue uptake at 6 h (Tissue biodistribution: Tumor): 15.6 ± 2.01 %ID/g | tissue uptake at 24 h (Tissue biodistribution: Tumor): 17.9 ± 0.87 %ID/g | tissue uptake at 72 h (Tissue biodistribution: Tumor): 12.1 ± 1.94 %ID/g | tissue uptake at 168 h (Tissue biodistribution: Tumor): 4.04 ± 0.66 %ID/g | tissue to tissue ratio at 2 h (Tumor/Blood): 70.2 ± 30 | tissue to tissue ratio at 6 h (Tumor/Blood): 425 ± 28 | tissue to tissue ratio at 24 h (Tumor/Blood): 848 ± 107 | tissue to tissue ratio at 72 h (Tumor/Blood): 737 ± 174 | tissue to tissue ratio at 168 h (Tumor/Blood): 345 ± 220 | tissue to tissue ratio at 2 h (Tumor/Bone): 52.9 ± 18.6 | tissue to tissue ratio at 6 h (Tumor/Bone): 57.4 ± 17.9 | tissue to tissue ratio at 24 h (Tumor/Bone): 70 ± 5.18 | tissue to tissue ratio at 72 h (Tumor/Bone): 47.8 ± 16.4 | tissue to tissue ratio at 168 h (Tumor/Bone): 15.6 ± 6.16 | tissue to tissue ratio at 2 h (Tumor/Kidney): 1.05 ± 0.32 | tissue to tissue ratio at 6 h (Tumor/Kidney): 1.99 ± 0.69 | tissue to tissue ratio at 24 h (Tumor/Kidney): 2.67 ± 0.15 | tissue to tissue ratio at 72 h (Tumor/Kidney): 4.48 ± 1.26 | tissue to tissue ratio at 168 h (Tumor/Kidney): 4.23 ± 0.07
